Measured values published in article PMC7517697.

System: T1, CATH-B1 (mature cathelicidin-B1 peptide) (chicken)
T1 sequence: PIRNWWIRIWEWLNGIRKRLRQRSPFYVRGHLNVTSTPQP
Assay: ITC
Settings: 75% PBS, 37 °C, dH -65.5 kJ/mol, dS -73.5 J/mol as printed, ITC: 75% PBS (PBS/H2O 3:1 v/v), 200 µM CATH-B1 in syringe titrated in 1 µL injections at 300 s intervals into ODN-2006 (25 nM as printed), pH not stated

Which Kd does the source give for ODN-2006 here?
The Kd was 64 nM.
